These are literature values, as cited in US9133440B2, “Generation of new pancreatic beta cells” (priority 2012, dated 2015).

Data set [1] deals with human pancreatic ductal tissue devoid of islets. The settings on record: cited from earlier work.
In data set [2] the test system is STZ-rendered diabetic mice. The settings on record: cited from earlier work.

B1: Reg3a protein: human Reg3a gene protein given to ductal tissue and STZ diabetic mice in the inventor's earlier study (protein, listed as Homo sapiens)
chain: MLPPMALPSVSWMLLSCLMLLSQVQGEEPQRELPSARIRCPKGSKAYGSHCYALFLSPKSWTDADLACQKRPSGNLVSVLSGAEGSFVSSLVKSIGNSYSYVWIGLHDPTQGTEPNGEGWEWSSSDVMNYFAWERNPSTISSPGHCASLSRSTAFLRWKDYNCNVRLPYVCKFTD
In the case of B1, in data set [1], the insulin concentrations result is recorded as “significant increase”. The “rise in total beta cells staining insulin” value in data set [2] (STZ-rendered diabetic mice) is on record as 3 fold. Further, the fasting glucose in data set [2] (overnight fast, morning of day 39 of treatment, P=0.020 vs placebo) is 111.00 ± 11.4 mg/dL.
